Reference: patent publication US20210398607A1, “METHODS FOR DESIGNING ANTIBODY SMALL-MOLECULE CONJUGATES” (priority 2020, published 2021)
“Also recorded” adds a separate entry of the source.

B11: mSA (monomeric streptavidin construct), wild type (other)
chain: HHHHHHSQDLASAEAGITGTWYNQSGSTFTVTAGADGNLTGQYENRAQGTGCQNSPYTLTGRYNGTKLEWRVEWNNSTENCHSRTEWRGQYQGGAEARINTQWNLTYEGGSGPATEQGQDTFTKVKPSAASGSDYKDDDDK
notes: also called mSAWT

Experiments:
[1] = target: B11; assay: SPR, single-cycle injections of 2.5, 5, 10, 20 and 50 nM conjugate; target mSAWT by the text, not printed on the sheet; fit curve
[2] = target: B11; assay: SPR
[3] = target: B11; assay: SPR, single-cycle injections of 2.5, 5, 10, 20 and 50 nM conjugate; target mSAWT by the text, not printed on the sheet; fit curve
[4] = target: mSA (monomeric streptavidin, mSAWT) (Streptomyces avidinii; Rhizobium etli, UniProt P22629+Q8KKW2); assay: SPR binding against mSAWT; settings: for koff / dissociation rate, in words: mSAWT
Description: Smt3 SUMO protein has an unstructured N-terminus and it was hypothesized this would minimize the interaction between the protein components.

[5] = for aggregation / monomer stability on SEC: SEC traces
Protocol: Two additional rounds of CDR residue mutability analysis were performed followed by in-parallel combinatorial designs on v149 until no further CDR mutations were predicted to be energetically favorable. Mutations accumulated in previous rounds of design were kept intact in subsequent rounds.

[6] = target: B11; assay: SPR, conjugate injected at 0.5, 1, 2.5, 5, 10 nM over immobilized mSAWT; fit curve
[7] = target: B11; assay: SPR, single-cycle injections of 1, 2.5, 5, 10 and 20 nM conjugate over immobilized mSAWT; fit curve
[8] = target: B11; assay: as above
[9] = target: T1, N-terminal biotinylated Smt3 SUMO protein (UniProt Q12306 2-98 = SUMO); assay: SPR, Biotin_SUMO injected at 2.5, 10, 20, 50, 80 nM over immobilized mSAWT; fit curve; replicate 2
[10] = target: T1, N-terminal biotinylated Smt3 SUMO …; assay: SPR, Biotin_SUMO injected at 2.5, 10, 20, 50, 80 nM over immobilized mSAWT; fit curve; one of three replicates
[11] = target: T1, N-terminal biotinylated Smt3 SUMO …; assay: SPR, Biotin_SUMO injected at 2.5, 10, 20, 50, 80 nM over immobilized mSAWT; fit curve; replicate 3

B1: 2X89.A-CCAA-biotin57 v42 (VHH)
VHH: QVQLQESGGGLVQAGGSLRLSCAASGYTDSQYAMGWYRQAPGKEREWVATISAGRDCTYYADSVKGRFTFSQDNAKNTVYLQMDSLKPEDTAVYYCATDIPLQATLITAKGGKGFQYWGQGTQVTVSS
**Q.** With B1 as the molecule, how does the Kd [1] read?
**A.** The Kd was 3.32 nM.

**Q.** What about the koff [1] of the same molecule?
**A.** The koff was 0.00178 s⁻¹.

**Q.** And the kon [1]?
**A.** Its kon is 540000 M⁻¹ s⁻¹.

B2: 2X89.A-CCAA-biotin57 v37 (VHH)
VHH: QVQLQESGGGLVQAGGSLRLSCAASGYTDSRYAMGWYRQAPGKEREWVARISAGRDCTYYADSVKGRFTFSQDNAKNTVYLQMDSLKPEDTAVYYCATDIPLQATLITAKGGDGFRYWGQGTQVTVSS
**Q.** Does B2 bind [2]?
**A.** Result: binds

B3: 2X89.A-CCAA-biotin57 v20 (VHH)
VHH: QVQLQESGGGLVQAGGSLRLSCAASGYTSSQYAMGWYRQAPGKEREWVATISAGRDCTYYADSVKGRFTFSQDNAKNTVYLQMDSLKPEDTAVYYCATDSPLQATLITAKGGKGFQYWGQGTQVTVSS
**Q.** Which Kd [3] does the source give for B3 here?
**A.** The Kd was 3.28 nM.

**Q.** What about the koff [3] of the same molecule?
**A.** Its koff is 0.00183 s⁻¹.

**Q.** What about the kon [3] of the same molecule?
**A.** Its kon is 560000 M⁻¹ s⁻¹.

B4: Wildtype 4NBX.B: nanobody scaffold, chain B of PDB structure 4NBX, SEQ ID NO:1, unconjugated (protein)
VHH: QVQLQESGGGLAQAGGSLRLSCAASGRTFSMDPMAWFRQPPGKEREFVAAGSSTGRTTYYADSVKGRFTISRDNAKNTVYLQMNSLKPEDTAVYYCAAAPYGANWYRDEYAYWGQGTQVTVSSHHHHHH
modifications: 4NBX.B-WT
**Q.** Which “binding signal to mSA” value ([4]; concentrations up to 100 nM) does the source give for B4 here?
**A.** The value was “did not show binding signal”.

B5: 4NBX.B-biotin103 v119: 4NBX.B-biotin103 with M31H/D32A/N104S/W105H, SEQ ID NO:3 (conjugate)
VHH: QVQLQESGGGLAQAGGSLRLSCAASGRTFSHAPMAWFRQPPGKEREFVAAGSSTGRTTYYADSVKGRFTISRDNAKNTVYLQMNSLKPEDTAVYYCAAAPYGCSHYRDEYAYWGQGTQVTVSSHHHHHH
**Q.** Which “koff / dissociation rate, in words” value [4] does the source give for B5 here?
**A.** The value was “only minimally different”.

**Q.** And the “aggregation / monomer stability on SEC” value [5]?
**A.** The value was “single peaks”.

B6: 4NBX.B-biotin103: nanobody 4NBX.B A103C (SEQ ID NO:2) conjugated with biotin C2 maleimide at site 103 (conjugate)
VHH: QVQLQESGGGLAQAGGSLRLSCAASGRTFSMDPMAWFRQPPGKEREFVAAGSSTGRTTYYADSVKGRFTISRDNAKNTVYLQMNSLKPEDTAVYYCAAAPYGCNWYRDEYAYWGQGTQVTVSSHHHHHH
**Q.** Which “aggregation / monomer stability on SEC” value [5] does the source give for B6 here?
**A.** Its value is “single peaks”.

B7: 4NBX.B-biotin103 v149: 4NBX.B-biotin103 with M31R/D32S/N104A/W105R, SEQ ID NO:4; the WT line of Table 3 (conjugate)
VHH: QVQLQESGGGLAQAGGSLRLSCAASGRTFSRSPMAWFRQPPGKEREFVAAGSSTGRTTYYADSVKGRFTISRDNAKNTVYLQMNSLKPEDTAVYYCAAAPYGCARYRDEYAYWGQGTQVTVSSHHHHHH
**Q.** With B7 as the molecule, how does the “aggregation / monomer stability on SEC” value [5] read?
**A.** Its value is “very prone to aggregation”.

B8: 4NBX.B-biotin103 v186 (VHH)
VHH: QVQLQESGGGLAQAGGSLRLSCAASGRTFSRSPMAWFRQPPGKEREFVAAGSSTGTTTYYADSVKGRFTISRDNAKNTVYLQMNSLKPEDTAVYYCAAAPLGCARKFAESAYWGQGTQVTVSS
**Q.** Which Kd [6] does the source give for B8 here?
**A.** Its Kd is 0.33 nM.

**Q.** What about the koff [6] of the same molecule?
**A.** The koff was 0.00106 s⁻¹.

**Q.** And the kon [6]?
**A.** Its kon is 3.23e+06 M⁻¹ s⁻¹.

B9: 4NBX.B-biotin103 v186_Fr -1 (VHH)
VHH: QVQLQESGGGLVQAGGSLRLSCAASGRTFSRSPMAWYRQPPGKEREFVAAGSSTGTTTYYADSVKGRFTISRDNAKNTVYLQMNSLKPEDTAVYYCAAAPLCAARKFAESAYWGQGTQVTVSS
notes: also called -1 variant of 4NBX.B-biotin103 v186_Fr
**Q.** What does the source list for B9?
**A.** Kd [7]: 0.32 nM; koff [7]: 0.000986 s⁻¹; kon [7]: 3.13e+06 M⁻¹ s⁻¹

B10: 4NBX.B-biotin103 v186_Fr +1 (VHH)
VHH: QVQLQESGGGLVQAGGSLRLSCAASGRTFSRSPMAWYRQPPGKEREFVAAGSSTGTTTYYADSVKGRFTISRDNAKNTVYLQMNSLKPEDTAVYYCAAAPLGACRKFAESAYWGQGTQVTVSS
notes: also called +1 variant of 4NBX.B-biotin103 v186_Fr
**Q.** With B10 as the molecule, how does the “fold weaker binding than the -1 variant” value [2] read?
**A.** The value was about 2 fold.

**Q.** What about the Kd [8] of the same molecule?
**A.** Its Kd is 0.64 nM.

**Q.** What about the koff [8] of the same molecule?
**A.** The koff was 0.00138 s⁻¹.

**Q.** And the kon [8]?
**A.** Its kon is 2.14e+06 M⁻¹ s⁻¹.

**Q.** For B11, which Kd [9] is on record?
**A.** The Kd was 10.5 nM.

**Q.** What about the koff [9] of the same molecule?
**A.** Its koff is 0.00372 s⁻¹.

**Q.** And the kon [9]?
**A.** The kon was 360000 M⁻¹ s⁻¹.

**Q.** And the Kd [10]?
**A.** Its Kd is 7.85 nM.

**Q.** What about the koff [10] of the same molecule?
**A.** The koff was 0.00334 s⁻¹.

**Q.** And the kon [10]?
**A.** Its kon is 430000 M⁻¹ s⁻¹.

**Q.** And the Kd [11]?
**A.** The Kd was 10.4 nM.

**Q.** What about the koff [11] of the same molecule?
**A.** The koff was 0.00366 s⁻¹.

**Q.** What about the kon [11] of the same molecule?
**A.** Its kon is 350000 M⁻¹ s⁻¹.

B12: 4NBX.B-biotin103 v186: v149 plus Y101L/R107F/R56T/Y106K/D108A/Y110S, SEQ ID NO:5; the WT line of Table 2 (conjugate)
VHH: QVQLQESGGGLAQAGGSLRLSCAASGRTFSRSPMAWFRQPPGKEREFVAAGSSTGTTTYYADSVKGRFTISRDNAKNTVYLQMNSLKPEDTAVYYCAAAPLGCARKFAESAYWGQGTQVTVSSHHHHHH
**Q.** Which results are given for B12?
**A.** KD / measured affinity against mSAWT, comparison in words [4]: very similar KD as v149; aggregation / monomer stability on SEC [5]: even worse aggregates formation than v149

B13: 4NBX.B-biotin103 v186_Fr − 1: v186_Fr with biotin103 moved to −1 position on CDR3, SEQ ID NO:8 (conjugate)
VHH: QVQLQESGGGLVQAGGSLRLSCAASGRTFSRSPMAWYRQPPGKEREFVAAGSSTGTTTYYADSVKGRFTISRDNAKNTVYLQMNSLKPEDTAVYYCAAAPLCAARKFAESAYWGQGTQVTVSSHHHHHH
modifications: biotin conjugated; 4NBX.B-biotin103 v186_Fr -1
**Q.** With B13 as the molecule, how does the “KD / measured affinity against mSAWT, comparison in words” value [4] read?
**A.** Its value is “minimally different from the wildtype v186_Fr”.

B14: 4NBX.B-biotin103 v186_Fr + 1: v186_Fr with biotin103 moved to +1 position on CDR3, SEQ ID NO:7 (conjugate)
VHH: QVQLQESGGGLVQAGGSLRLSCAASGRTFSRSPMAWYRQPPGKEREFVAAGSSTGTTTYYADSVKGRFTISRDNAKNTVYLQMNSLKPEDTAVYYCAAAPLGACRKFAESAYWGQGTQVTVSSHHHHHH
modifications: biotin conjugated; 4NBX.B-biotin103 v186_Fr +1
**Q.** For B14, which “KD / measured affinity against mSAWT, comparison in words” value [4] is on record?
**A.** Its value is “minimally different from the wildtype v186_Fr”.

B15: 4NBX.B-biotin103 v186_Fr: v186 plus framework mutations A12V/F37Y, SEQ ID NO:6 (conjugate)
VHH: QVQLQESGGGLVQAGGSLRLSCAASGRTFSRSPMAWYRQPPGKEREFVAAGSSTGTTTYYADSVKGRFTISRDNAKNTVYLQMNSLKPEDTAVYYCAAAPLGCARKFAESAYWGQGTQVTVSSHHHHHH
**Q.** For B15, which “aggregation / monomer stability on SEC” value [5] is on record?
**A.** Its value is “significantly reduced aggregation”.

**Q.** And the “re-aggregation of collected fractions excluding the aggregates peak” value ([5]; rerun on SEC)?
**A.** Its value is “did not re-aggregate”.

B16: 2X89.A-CCAA-biotin57 v5: final variant of 2X89.A-CCAA-biotin57 that accumulated 18 mutations, SEQ ID NO:14 (conjugate)
VHH: QVQLQESGGGLVQAGGSLRLSCAASGYTSSQYAMGWYRQAPGKEREWVATISAGADCTYYADSVKGRFTFSQDNAKNTVYLQMDSLKPEDTAVYYCATDSPLQATLITAKGGKGFQYWGQGTQVTVSSHHHHHH
**Q.** Which results are given for B16?
**A.** koff / dissociation rate, in words [4]: relatively preserved; aggregation / monomer stability on SEC [5]: eventually better than the 2X89.A-CCAA-biotin57 parent conjugate

B17: 2X89.A-CCAA-biotin57: nanobody 2X89.A, intra-CDR disulfide replaced by two alanines, biotin conjugated to site 57, SEQ ID NO:10 (conjugate)
VHH: QVQLQESGGGSVQAGGSLRLSCAASGYTDSRYAMAWFRQAPGKEREWVARINSGRDCTYYADSVKGRFTFSQDNAKNTVYLQMDSLEPEDTATYYCATDIPLRARDIVAKGGDGFRYWGQGTQVTVSSHHHHHH
**Q.** Which “koff / dissociation rate, in words” value [4] does the source give for B17 here?
**A.** Its value is “especially slow dissociation rate; also recorded: slightly better than the best designed 4NBX.B variant v186_Fr”.

**Q.** What about the “aggregation / monomer stability on SEC” value [5] of the same molecule?
**A.** The value was “aggregated obviously”.
